Data on 4 sequences can be found in the supplement of paper PMC5998384.

Data set [1] has as its system HeLa Kyoto. The experiment in a line: solubility change mitosis vs G1/S (difference of NP-40 vs SDS log2 ratios) (log2 ratio difference); higher = more soluble in mitosis.
Data set [2] relates to HeLa Kyoto. Nature of the data set: solubility in G1/S (NP-40 vs SDS abundance) (log2 ratio); higher = more soluble. Particulars: cell cycle stage: G1/S.
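For solubility change mitosis vs G1/S (difference of NP-40 vs SDS log2 ratios) in this document: synchronized HeLa Kyoto cells (double thymidine block for G1/S, nocodazole release for mitosis), protein amounts in NP-40 versus SDS lysates quantified by mass spectrometry, three biological replicates.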
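For solubility in G1/S (NP-40 vs SDS abundance) in this document: HeLa Kyoto cells arrested at G1/S by double thymidine block, proteins quantified by TMT10plex mass spectrometry in mild NP-40 versus SDS extracts, three biological replicates.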

As to “MGAVTDDEVIRKRLLIDGDGAGDDRRINLLVKSFIKWCNSGSQEEGYSQYQRMLSTLSQCEFSMGKTLLVYDMNLREMENYEKIYKEIECSIAGAHEKIAECKKQILQAKRIRKNRQEYDALAKVIQHHPDRHETLKELEALGKELEHLSHIKESVEDKLELRRKQFHVLLSTIHELQQTLENDEKLSEVEEAQEASMETDPKP [THOC7]”, the “solubility change mitosis (log2)” value in data set [1] was 0.387. The “solubility in G1/S (log2)” value in data set [2] is -0.022.

For the sequence “MGDAGSERSKAPSLPPRCPCGFWGSSKTMNLCSKCFADFQKKQPDDDSAPSTSNSQSDLFSEETTSDNNNTSITTPTLSPSQQPLPTELNVTSPSKEECGPCTDTAHVSLITPTKRSCGTDSQSENEASPVKRPRLLENTERSEETSRSKQKSRRRCFQCQTKLELVQQELGSCRCGYVFCMLHRLPEQHDCTFDHMGRGREEAIMKMVKLDRKVGRSCQRIGEGCS [ZFAND3]”, the “solubility change mitosis (log2)” value in data set [1] was -0.0341. Further, in data set [2], the “solubility in G1/S (log2)” value was 0.216.

Turning to “MGDNPFQPKSNSKMAELFMECEEEELEPWQKKVKEVEDDDDDEPIFVGEISSSKPAISNILNRVNPSSYSRGLKNGALSRGITAAFKPTSQHYTNPTSNPVPASPINFHPESRSSDSSVIVQPFSKPGYITNSSRVVSNKSSELLFDLTQDTGLSHYQGGPTLSMAGMSESSFLSKRPSTSEVNNVNPKKPKPSESVSGANSSAVLPSVKSPSVTSSQAMLAKGTNTSSNQSKNGTPFPRACPKCNIHFNLLDPLKNHMKYCCPDMINNFLGLAKTEFSSTVNKNTTIDSEKGKLIMLVNDFYYGKHEGDVQEEQKTHTTFKCFSCLKILKNNIRFMNHMKHHLELEKQSSESWENHTTCQHCYRQFPTPFQLQCHIESTHTPHEFSTICKICELSFETEHVLLQHMKDNHKPGEMPYVCQVCNYRSSSFSDVETHFRTSHENTKNLLCPFCLKVIKIATPYMHHYMKHQKKGIHRCTKCRLQFLTCKEKMDHKTQHHRTFIKPKQLEGLPPGTKVTIRASVGPLQSGASPTPSISASASTLQLSPPRTKNITAKNPAKSNTSKPNTVKSNASKPNTSKPNGSKSKYKPKISNMQKKQSTLASSNKKSKVNTALRNLRYRRGIHKCIECCSEIKDFANHFPTYVHCSFCRYNTSCSKAYVNHMMSFHSNRPSKRFCIFKKHSENLRGITLVCLNCDFLSDVSGLDNMATHLSQHKTHTCQVVMQKVSVCIPTSEHLSELKKEAPAKEQEPVSKEIARPNMAERETETSNSESKQDKAASSKEKNGCNANSFEGSSTTKSEESITVSDKENETCLADQETGSKNIVSCDSNIGADKVEKKKQIQHVCQEMELKMCQSSENIILSDQIKDHNSSEARFSSKNIKDLRLASDNVSIDQFLRKRHEPESVSSDVSEQGSIHLEPLTPSEVLEYEATEILQKGSGDPSAKTDEVVSDQTDDIPGGNNPSTTEATVDLEDEKERS [ZNF280D]”, the “solubility change mitosis (log2)” value in data set [1] worked out at 0.447. Besides, the “solubility in G1/S (log2)” value in data set [2] was -0.86.

In the case of “MGETKIIYHLDGQETPYLVKLPLPAERVTLADFKGVLQRPSYKFFFKSMDDDFGVVKEEISDDNAKLPCFNGRVVSWLVSAEGSHPDPAPFCADNPSELPPPMERTGGIGDSRPPSFHPHAGGGSQENLDNDTETDSLVSAQRERPRRRDGPEHATRLNGTAKGERRREPGGYDSSSTLMSSELETTSFFDSDEDDSTSRFSSSTEQSSASRLMRRHKRRRRKQKVSRIERSSSFSSITDSTMSLNIITVTLNMEKYNFLGISIVGQSNERGDGGIYIGSIMKGGAVAADGRIEPGDMLLQVNEINFENMSNDDAVRVLREIVHKPGPITLTVAKCWDPSPRGCFTLPRSEPIRPIDPAAWVSHTAAMTGTFPAYGMSPSLSTITSTSSSITSSIPDTERLDDFHLSIHSDMAAIVKAMASPESGLEVRDRMWLKITIPNAFIGSDVVDWLYHNVEGFTDRREARKYASNLLKAGFIRHTVNKITFSEQCYYIFGDLCGNMANLSLHDHDGSSGASDQDTLAPLPHPGAAPWPMAFPYQYPPPPHPYNPHPGFPELGYSYGGGSASSQHSEGSRSSGSNRSGSDRRKEKDPKAGDSKSGGSGSESDHTTRSSLRGPRERAPSERSGPAASEHSHRSHHSLASSLRSHHTHPSYGPPGVPPLYGPPMLMMPPPPAAMGPPGAPPGRDLASVPPELTASRQSFRMAMGNPSEFFVDVM [DVL3]”, the “solubility change mitosis (log2)” value in data set [1] is -0.17. Besides, the “solubility in G1/S (log2)” value in data set [2] is -0.0796.
